Bridge positions count the residues as written; N and C are the ends. Side chains are listed from the residue outwards. * marks the point of attachment. Biotin = O=C1N[C@H]2[C@H](CS[C@H]2CCCCC(=O)*)N1; AEEA = NCCOCCOCC(=O)O
Key:
[1] = molecular target: KDR (VEGFR-2), full-length receptor on cells (human), P35968; test: competitor 125I-VEGF (300 pM) on KDR-transfected 293H cells; peptide 0.3 µM; details: remark: other sources report otherwise
[2] = molecular target: KDR (VEGFR-2), full-length receptor on cells (human), P35968; test: competitor 125I-VEGF (300 pM) on KDR-transfected 293H cells; peptide 30 µM; details: remark: other sources report otherwise

Chain of KDR (VEGFR-2), full-length receptor on cells (human), P35968 (P35968 20-1356): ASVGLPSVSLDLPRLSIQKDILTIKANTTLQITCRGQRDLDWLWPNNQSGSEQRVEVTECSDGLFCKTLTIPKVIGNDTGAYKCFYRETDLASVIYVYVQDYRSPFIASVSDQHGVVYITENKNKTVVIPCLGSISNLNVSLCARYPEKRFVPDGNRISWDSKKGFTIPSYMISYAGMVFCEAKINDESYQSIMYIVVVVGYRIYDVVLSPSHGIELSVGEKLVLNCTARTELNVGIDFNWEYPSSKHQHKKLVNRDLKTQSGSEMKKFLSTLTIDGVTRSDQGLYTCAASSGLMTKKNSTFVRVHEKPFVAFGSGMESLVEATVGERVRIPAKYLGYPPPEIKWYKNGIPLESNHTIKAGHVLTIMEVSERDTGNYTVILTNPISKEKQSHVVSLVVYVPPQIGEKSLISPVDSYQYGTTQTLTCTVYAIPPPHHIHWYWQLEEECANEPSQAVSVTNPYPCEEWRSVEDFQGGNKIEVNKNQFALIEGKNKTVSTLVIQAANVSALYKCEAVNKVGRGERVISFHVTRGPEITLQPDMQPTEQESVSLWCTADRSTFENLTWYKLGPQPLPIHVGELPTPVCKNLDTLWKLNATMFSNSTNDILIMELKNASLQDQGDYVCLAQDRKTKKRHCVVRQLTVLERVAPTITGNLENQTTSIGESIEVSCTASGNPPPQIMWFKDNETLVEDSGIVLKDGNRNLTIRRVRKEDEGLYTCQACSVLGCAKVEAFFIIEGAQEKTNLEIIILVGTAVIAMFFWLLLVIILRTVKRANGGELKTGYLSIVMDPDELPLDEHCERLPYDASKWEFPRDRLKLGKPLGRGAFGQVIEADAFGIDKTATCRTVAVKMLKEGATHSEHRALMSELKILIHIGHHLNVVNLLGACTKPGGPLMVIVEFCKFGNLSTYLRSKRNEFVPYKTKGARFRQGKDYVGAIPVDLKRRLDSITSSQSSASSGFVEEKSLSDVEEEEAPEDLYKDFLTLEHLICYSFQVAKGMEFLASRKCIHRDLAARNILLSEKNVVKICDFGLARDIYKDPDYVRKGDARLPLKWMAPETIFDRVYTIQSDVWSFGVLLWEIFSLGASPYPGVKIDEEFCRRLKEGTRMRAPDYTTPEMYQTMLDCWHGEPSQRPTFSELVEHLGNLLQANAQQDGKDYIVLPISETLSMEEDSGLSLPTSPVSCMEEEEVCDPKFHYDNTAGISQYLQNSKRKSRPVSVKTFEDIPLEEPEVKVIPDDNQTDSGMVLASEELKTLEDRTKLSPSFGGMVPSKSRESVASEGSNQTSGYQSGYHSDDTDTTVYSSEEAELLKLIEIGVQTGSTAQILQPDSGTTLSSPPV

B1: biotinylated SEQ ID NO:264 with a JJ spacer (peptide)
peptide: Ac-AGPKWCEEDWYYCMITGTGGGK([AEEA-AEEA-Biotin])-NH2
modifications: disulfide 6-13 (inferred)
% inhibition of 125I-labeled VEGF binding [1]: 24.4%
% inhibition of 125I-labeled VEGF binding [2]: 48%
